In the supplement of paper PMC9112550, “Optimization of the antimicrobial peptide Bac7 by deep mutational scanning” (BMC Biology, 2022):

Each sequence was assayed on Escherichia coli TOP10 (assay: shrunken log2 fold change of peptide-encoding DNA abundance (4.5 h post-induction vs induction); higher = less antimicrobial activity (less host growth inhibition)). Conditions: time post-induction: 4.5 h; library: site-saturation at positions 5, 18, 19, 20.
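Also: peptides expressed intracellularly from a pBAD plasmid library in pooled LB shake-flask culture, induced with 0.3% L-arabinose, DNA abundance read by NGS, three biological replicates, DESeq2 with apeglm shrinkage.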

Row | Sequence | shrunken log2 fold change
1 | RRIRHRPPRLPRPRPRPEFIPRP | -0.0433
2 | RRIRHRPPRLPRPRPRPEFQPRP | -0.0862
3 | RRIRHRPPRLPRPRPRPEGQPRP | -0.0936
4 | RRIRHRPPRLPRPRPRPEGSPRP | -0.0192
5 | RRIRHRPPRLPRPRPRPEHKPRP | 0.000824
6 | RRIRHRPPRLPRPRPRPEKKPRP | -0.00333
7 | RRIRHRPPRLPRPRPRPEKQPRP | -0.0365
8 | RRIRHRPPRLPRPRPRPELIPRP | -0.0454
9 | RRIRHRPPRLPRPRPRPELMPRP | -0.141
10 | RRIRHRPPRLPRPRPRPEMAPRP | 0.253
11 | RRIRHRPPRLPRPRPRPENIPRP | -0.0173
12 | RRIRHRPPRLPRPRPRPEQDPRP | 0.057
13 | RRIRHRPPRLPRPRPRPEQIPRP | 0.0219
14 | RRIRHRPPRLPRPRPRPETVPRP | 0.12
15 | RRIRHRPPRLPRPRPRPFATPRP | 0.106
16 | RRIRHRPPRLPRPRPRPFCCPRP | -0.0718
17 | RRIRHRPPRLPRPRPRPFDAPRP | 0.00493
18 | RRIRHRPPRLPRPRPRPFEVPRP | -0.172
19 | RRIRHRPPRLPRPRPRPFFSPRP | -0.253
20 | RRIRHRPPRLPRPRPRPFHIPRP | -0.0345
21 | RRIRHRPPRLPRPRPRPFHNPRP | -0.305
22 | RRIRHRPPRLPRPRPRPFHPPRP | -0.274
23 | RRIRHRPPRLPRPRPRPFIAPRP | -0.272
24 | RRIRHRPPRLPRPRPRPFKAPRP | -0.0378
25 | RRIRHRPPRLPRPRPRPFKHPRP | -0.454

Row | Sequence | shrunken log2 fold change
26 | RRIRHRPPRLPRPRPRPFLHPRP | -0.449
27 | RRIRHRPPRLPRPRPRPFLNPRP | -0.169
28 | RRIRHRPPRLPRPRPRPFMKPRP | -0.00214
29 | RRIRHRPPRLPRPRPRPFMLPRP | -0.726
30 | RRIRHRPPRLPRPRPRPFNTPRP | -1.18
31 | RRIRHRPPRLPRPRPRPFPMPRP | -0.651
32 | RRIRHRPPRLPRPRPRPFQDPRP | 0.0239
33 | RRIRHRPPRLPRPRPRPFRCPRP | -0.556
34 | RRIRHRPPRLPRPRPRPFRFPRP | -0.132
35 | RRIRHRPPRLPRPRPRPFRPPRP | -0.188
36 | RRIRHRPPRLPRPRPRPFRRPRP | 0.0303
37 | RRIRHRPPRLPRPRPRPFSVPRP | -1.26
38 | RRIRHRPPRLPRPRPRPFTIPRP | -0.0345
39 | RRIRHRPPRLPRPRPRPFTLPRP | -0.312
40 | RRIRHRPPRLPRPRPRPFTMPRP | -0.349
41 | RRIRHRPPRLPRPRPRPFVDPRP | 0.268
42 | RRIRHRPPRLPRPRPRPFWLPRP | 0.137
43 | RRIRHRPPRLPRPRPRPFYAPRP | -0.724
44 | RRIRHRPPRLPRPRPRPFYKPRP | -0.774
45 | RRIRHRPPRLPRPRPRPGASPRP | -0.196
46 | RRIRHRPPRLPRPRPRPGCAPRP | 0.124
47 | RRIRHRPPRLPRPRPRPGCCPRP | 0.0396
48 | RRIRHRPPRLPRPRPRPGDKPRP | -0.0257
49 | RRIRHRPPRLPRPRPRPGELPRP | 0.0143
50 | RRIRHRPPRLPRPRPRPGENPRP | -0.00146

Row | Sequence | shrunken log2 fold change
51 | RRIRHRPPRLPRPRPRPGEVPRP | 0.0396
52 | RRIRHRPPRLPRPRPRPGFEPRP | 0.373
53 | RRIRHRPPRLPRPRPRPGFLPRP | -0.0294
54 | RRIRHRPPRLPRPRPRPGFRPRP | 0.237
55 | RRIRHRPPRLPRPRPRPGGFPRP | -0.127
56 | RRIRHRPPRLPRPRPRPGGLPRP | 0.117
57 | RRIRHRPPRLPRPRPRPGGWPRP | 1.47
58 | RRIRHRPPRLPRPRPRPGHCPRP | -0.133
59 | RRIRHRPPRLPRPRPRPGHLPRP | -0.0129
60 | RRIRHRPPRLPRPRPRPGICPRP | -0.154
61 | RRIRHRPPRLPRPRPRPGIPPRP | 0.0292
62 | RRIRHRPPRLPRPRPRPGLLPRP | -0.0335
63 | RRIRHRPPRLPRPRPRPGNEPRP | -0.364
64 | RRIRHRPPRLPRPRPRPGNHPRP | -0.161
65 | RRIRHRPPRLPRPRPRPGNKPRP | -0.089
66 | RRIRHRPPRLPRPRPRPGRKPRP | 0.00144
67 | RRIRHRPPRLPRPRPRPGSLPRP | 0.134
68 | RRIRHRPPRLPRPRPRPGSSPRP | 0.0127
69 | RRIRHRPPRLPRPRPRPGTCPRP | -0.318
70 | RRIRHRPPRLPRPRPRPGTDPRP | -0.0998
71 | RRIRHRPPRLPRPRPRPGTEPRP | -0.0642
72 | RRIRHRPPRLPRPRPRPGWYPRP | -0.018
73 | RRIRHRPPRLPRPRPRPGYFPRP | -0.0725
74 | RRIRHRPPRLPRPRPRPGYGPRP | -0.318
75 | RRIRHRPPRLPRPRPRPGYIPRP | -0.176
